The text below walks through data of patent publication US20190269761A1.

For test [1], the target named is mSWI/SNF (BAF) complexes, endogenous. The test can be described thus: urea denaturation and IP, as restated in the discussion.
For test [2] the target is unchanged. The test can be described thus: quantitative densitometry of anti-SS18 immunoblot of glycerol gradient, Aska-SS cells bearing SS18-SSX1. On the technique in general: In western blotting, separated proteins are transferred to a membrane and probed.
For test [3] the target is unchanged. The test can be described thus: urea denaturation of 293T nuclear extract followed by anti-Brg IP and immunoblot.
The target is the same in test [4]. The test can be described thus: urea denaturation and IP, as restated in the discussion; complexes of synovial sarcoma cells.

As for “SS18 (wild-type, endogenous human) (from UniProt Q15532 2-418)”, in test [1], the urea concentration required to remove was found to be 8 M. The percentage of BAF complexes that contain wild-type SS18 in test [2] is 2 to 8%. In test [3], this substance gave a urea concentration required to dissociate of 5 M.
Consider “SS18-SSX1 fusion protein (from UniProt Q15532 1-379)”, for which the urea concentration required to remove in test [4] was found to be 8 M.
